Measurements reported in publication PMC5800842.
Positions count from the first letter of the chain named. In names and notes the source's numbering stands. Each block holds one binder with its values, some of them ahead of it.

Experiments:
[1] = molecular target: LGR4 (human (endogenous in HAP1)) (UniProt Q9BXB1)

EC50 of potentiation of WNT reporter fluorescence in WT HAP1-7TGP cells with 1.43% WNT3A CM, fold over wild-type RSPO3 (ZNRF3/RNF43): 21 fold
B1: HA-RSPO3 R67A/Q72A-Tev-Fc-Avi-1D4 (Fc fusion)
chain: QNASRGRRQRRMHPNVSQGCQGGCATCSDYNGCLSCKPRLFFALEAIGMKAIGVCLSSCPSGYYGTRYPDINKCTKCKADCDTCFNKNFCTKCKSGFYLHLGKCLDNCPEGLEANNHTMECVSIVHCEVSEWNPWSPCTKKGKTCGFKRGTETRVREIIQHPSAKGNLCPPTNETRKCTVQRKKCQKGERGKKGRERKRKKPNKGESKEAIPDSKSLESSKEIPEQRENKQQQKKRKVQDKQKSVSVSTVH

EC50 of potentiation of WNT reporter fluorescence in WT HAP1-7TGP cells with 1.43% WNT3A CM, fold over wild-type RSPO3 [1]: 2.9 fold
efficacy (maximum WNT reporter activity) in WT HAP1-7TGP cells with 1.43% WNT3A CM, reduction against wild-type RSPO3 [1]: 48 % reduction
B2: HA-RSPO3 F106E/F110E-Tev-Fc-Avi-1D4 (Fc fusion)
chain: B1 chain with A46R, A51Q, F85E, F89E
